Here are results for 2 molecules from patent publication US20220153792A1 (INSTITUTE FOR RESEARCH IN BIOMEDICINE, published 2022).

The experiment has as its target T1, histidine tagged HMGB1 (High-Mobility-Group-Protein 1) (Homo sapiens (Human), UniProt P09429 1-215, limits assumed, labeled with the his-tag specific NT-647 dye).
T1 construct: also called high-mobility protein box 1; not shown: histidine tag
T1 sequence: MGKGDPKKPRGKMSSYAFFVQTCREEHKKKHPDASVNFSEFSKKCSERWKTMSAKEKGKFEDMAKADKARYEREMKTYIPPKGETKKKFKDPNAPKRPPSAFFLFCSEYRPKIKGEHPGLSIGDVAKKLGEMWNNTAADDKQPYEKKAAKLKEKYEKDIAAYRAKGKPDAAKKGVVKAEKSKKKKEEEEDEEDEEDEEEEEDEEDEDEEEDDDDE
In words: MST, NT-647-labelled His-tagged HMGB1, peptide titrated.

B1: Pentapept-2 (peptide)
peptide: ERWIH
notes: Last five residues of HBP08 (ERWIH)
B1: the Kd – broadly, a measure of binding affinity in units of concentration – amounted to 200 µM.

B2: Pentapept-1 (peptide)
peptide: GYHYE
notes: First five residues of HBP08 (GYHYE)
With B2, the binding result was “no binding (tested: highest peptide concentration 500 µM)”.
